Test results published in PMC4855633.

Target: fibrous bovine collagen I (bovine) (UniProt P02453)
Sequence of UniProt P02453 (P02453 162-1217, chain 1 of 2): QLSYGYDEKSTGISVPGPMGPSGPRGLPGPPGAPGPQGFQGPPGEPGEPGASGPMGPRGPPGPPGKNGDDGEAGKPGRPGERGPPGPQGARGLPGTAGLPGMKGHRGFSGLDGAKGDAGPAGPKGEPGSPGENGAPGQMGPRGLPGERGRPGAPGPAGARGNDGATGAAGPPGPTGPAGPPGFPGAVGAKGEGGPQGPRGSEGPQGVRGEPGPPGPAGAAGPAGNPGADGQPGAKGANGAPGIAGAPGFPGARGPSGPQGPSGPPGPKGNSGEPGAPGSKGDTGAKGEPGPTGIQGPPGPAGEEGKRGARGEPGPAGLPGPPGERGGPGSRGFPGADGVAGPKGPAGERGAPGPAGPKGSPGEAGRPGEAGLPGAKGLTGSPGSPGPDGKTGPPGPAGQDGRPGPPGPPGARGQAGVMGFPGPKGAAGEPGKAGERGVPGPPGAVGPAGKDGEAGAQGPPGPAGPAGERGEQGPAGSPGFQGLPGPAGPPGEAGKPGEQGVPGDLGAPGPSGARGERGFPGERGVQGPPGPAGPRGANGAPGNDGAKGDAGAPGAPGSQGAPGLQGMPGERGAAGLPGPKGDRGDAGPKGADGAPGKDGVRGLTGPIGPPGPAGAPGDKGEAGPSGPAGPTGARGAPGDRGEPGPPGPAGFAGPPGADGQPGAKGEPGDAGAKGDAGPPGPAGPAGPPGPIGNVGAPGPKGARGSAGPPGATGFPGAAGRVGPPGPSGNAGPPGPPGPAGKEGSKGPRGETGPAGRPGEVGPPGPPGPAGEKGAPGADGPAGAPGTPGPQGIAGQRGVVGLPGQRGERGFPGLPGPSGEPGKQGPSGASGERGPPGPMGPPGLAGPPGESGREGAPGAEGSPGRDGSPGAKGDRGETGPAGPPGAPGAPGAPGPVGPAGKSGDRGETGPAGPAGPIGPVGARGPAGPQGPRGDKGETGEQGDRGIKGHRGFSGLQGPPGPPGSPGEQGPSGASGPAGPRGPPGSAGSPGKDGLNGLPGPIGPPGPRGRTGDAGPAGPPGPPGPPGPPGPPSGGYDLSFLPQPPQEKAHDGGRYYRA
Sequence of UniProt P02453 (P02465 80-1117, chain 2 of 2, further chain): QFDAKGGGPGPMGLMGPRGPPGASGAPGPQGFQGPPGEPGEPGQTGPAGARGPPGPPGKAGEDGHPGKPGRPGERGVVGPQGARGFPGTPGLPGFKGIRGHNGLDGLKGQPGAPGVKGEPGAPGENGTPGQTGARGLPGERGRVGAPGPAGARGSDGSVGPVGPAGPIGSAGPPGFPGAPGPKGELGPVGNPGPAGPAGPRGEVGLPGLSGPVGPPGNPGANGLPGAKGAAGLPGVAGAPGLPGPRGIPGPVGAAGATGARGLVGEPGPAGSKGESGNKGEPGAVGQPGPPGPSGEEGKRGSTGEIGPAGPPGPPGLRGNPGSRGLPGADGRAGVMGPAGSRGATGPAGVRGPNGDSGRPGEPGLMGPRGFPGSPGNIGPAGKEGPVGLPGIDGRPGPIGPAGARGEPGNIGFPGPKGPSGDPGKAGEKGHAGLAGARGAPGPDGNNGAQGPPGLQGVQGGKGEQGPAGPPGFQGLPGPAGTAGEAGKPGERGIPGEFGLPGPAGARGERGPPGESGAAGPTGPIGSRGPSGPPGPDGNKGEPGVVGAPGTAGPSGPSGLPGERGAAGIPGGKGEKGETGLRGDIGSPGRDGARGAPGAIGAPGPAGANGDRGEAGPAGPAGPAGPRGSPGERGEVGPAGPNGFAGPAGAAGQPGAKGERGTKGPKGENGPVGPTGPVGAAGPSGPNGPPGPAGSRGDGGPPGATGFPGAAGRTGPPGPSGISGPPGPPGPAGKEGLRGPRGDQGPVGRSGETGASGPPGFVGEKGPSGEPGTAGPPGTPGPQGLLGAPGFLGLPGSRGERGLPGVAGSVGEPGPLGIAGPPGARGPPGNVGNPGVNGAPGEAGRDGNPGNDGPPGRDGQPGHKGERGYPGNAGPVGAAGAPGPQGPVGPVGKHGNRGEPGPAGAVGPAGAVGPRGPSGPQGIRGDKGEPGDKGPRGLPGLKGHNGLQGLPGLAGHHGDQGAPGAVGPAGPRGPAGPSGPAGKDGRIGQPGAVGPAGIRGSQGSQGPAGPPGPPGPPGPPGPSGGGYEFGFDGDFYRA

- reduction of static adhesion of washed human platelets to fibrous collagen I by anti-GPVI scFv in the presence of EDTA, relative to EDTA alone: 40%
- reduction of static adhesion of washed human platelets to fibrous collagen I by anti-GPVI scFv in the presence of EDTA, relative to control: 70%
Substance: glycoprotein VI (from UniProt Q9HCN6 21-339) (receptor)
